Measured values reported in publication PMC5123050.

Target: 32P-labelled ORF145/RIP (protein kinase A recognition sequence and C-terminal His-tag) (Acidianus two-tailed virus (ATV))
Assay: native gel or EMSA; 32P-ORF145/RIP (1 nM) with 1–100 nM Sso RNAP in 10 mM MOPS pH 6.5, 10 mM MgCl2, 260 mM NaCl, 5 mM DTT, 10% glycerol, BSA, 2 mM ATP, 65 °C 5 min; 6% native PAGE; tight binding equation; complexes also resistant to 2 M NaCl

Kd: 12.6 nM
Substance: Sulfolobus solfataricus (Sso) RNA polymerase, 13 subunits (from UniProt Q980R2 1-880) (complex)
